The values that follow come from patent publication US20070154994.

The target of the series is T1, TGF-β receptor I-K coil fusion protein (kinase domain).
T1 chain: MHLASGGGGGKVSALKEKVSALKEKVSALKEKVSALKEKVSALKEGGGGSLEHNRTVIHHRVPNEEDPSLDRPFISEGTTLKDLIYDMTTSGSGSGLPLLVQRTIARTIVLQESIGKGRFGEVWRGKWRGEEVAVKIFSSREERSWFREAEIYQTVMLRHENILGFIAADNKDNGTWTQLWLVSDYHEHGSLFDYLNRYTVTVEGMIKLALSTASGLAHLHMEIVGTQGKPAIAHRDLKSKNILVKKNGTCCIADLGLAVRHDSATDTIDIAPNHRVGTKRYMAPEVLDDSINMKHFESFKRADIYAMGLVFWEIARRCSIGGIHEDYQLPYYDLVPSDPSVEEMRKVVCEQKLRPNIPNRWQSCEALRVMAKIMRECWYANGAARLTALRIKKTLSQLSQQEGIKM

B1: TGF-β receptor II-E coil fusion protein (kinase domain) (protein)
chain: MHLASGGGGGEVSALEKEVSALEKEVSALEKEVSALEKEVSALEKGGGGSLERVNRQQKLSSTWETGKTRKLMEFSEHCAIILEDDRSDISSTCANNINHNTELLPIELDTLVGKGRFAEVYKAKLKQNTSEQFETVAVKIFPYEEYASWKTEKDIFSDINLKHENILQFLTAEERKTELGKQYWLITAFHAKGNLQEYLTRHVISWEDLRKLGSSLARGIAHLHSDHTPCGRPKMPIVHRDLKSSNILVKNDLTCCLCDFGLSLRLDPTLSVDDLANSGQVGTARYMAPEVLESRMNLENAESFKQTDVYSMALVLWEMTSRCNAVGEVKDYEPPFGSKVREHPCVESMKDNVLRDRGRPEIPSFWLNHQGIQMVCETLTECWDHDPEARLTAQCVAERFSELEHLDRLSGRSCSEEKIPEDGSLNTTK
Take B1: the “autophosphorylation with P33-gamma ATP, SDS-PAGE and phosphorimaging” value is “Lane 4 corresponding to the heterodimer shows the most autophosphorylation”.
